Results reported in PMC7954794, “Protein context shapes the specificity of SH3 domain-mediated interactions in vivo” (Nature Communications, 2021).

Tested on: PPIs identified as affected by the SH3 domain deletions
Experiment: Liquid DHFR-PCA low-throughput validation of PPIs affected by SH3 deletion (Fig. S1D-E)
Type: cell-based, Saccharomyces cerevisiae
Settings: label = prey, liquid DHFR-PCA, prey _1 = lost, _2 = gained in screen
Outline: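 Growth at 30 °C was tracked by OD each 15 min over 72 h in agar-free PCA selection medium, starting at 0.1 OD. Cells were diploids selected after mating, first cultured 48 h with NAT and HPH in synthetic complete MSG medium, pH 6.0.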

B1: YML035C_1 (protein, UniProt P15274 1-810, looked up)
AMP deaminase: MDNQATQRLNDLSLEPAPSHDEQDGSGLVIDIDQRKIGDEQAGVVVDDETPPLEQQDSHESLAADSRNANFSYHENQQLLENGTKQLALDEHDSHSAILEQPSHSTNCSSSNIAAMNKGHDSADHASQNSGGKPRTLSASAQHILPETLKSFAGAPVVNKQVRTSASYKMGMLADDASQQFLDDPSSELIDLYSKVAECRNLRAKYQTISVQNDDQNPKNKPGWVVYPPPPKPSYNSDTKTVVPVTNKPDAEVFDFTKCEIPGEDPDWEFTLNDDDSYVVHRSGKTDELIAQIPTLRDYYLDLEKMISISSDGPAKSFAYRRLQYLEARWNLYYLLNEYQETSVSKRNPHRDFYNVRKVDTHVHHSACMNQKHLLRFIKHKLRHSKDEKVIFRDGKLLTLDEVFRSLHLTGYDLSIDTLDMHAHKDTFHRFDKFNLKYNPIGESRLREIFLKTNNYIKGTYLADITKQVIFDLENSKYQNCEYRISVYGRSLDEWDKLASWVIDNKVISHNVRWLVQIPRLYDIYKKTGIVQSFQDICKNLFQPLFEVTKNPQSHPKLHVFLQRVIGFDSVDDESKVDRRFHRKYPKPSLWEAPQNPPYSYYLYYLYSNVASLNQWRAKRGFNTLVLRPHCGEAGDPEHLVSAYLLAHGISHGILLRKVPFVQYLYYLDQVGIAMSPLSNNALFLTYDKNPFPRYFKRGLNVSLSTDDPLQFSYTREPLIEEYSVAAQIYKLSNVDMCELARNSVLQSGWEAQIKKHWIGKDFDKSGVEGNDVVRTNVPDIRINYRYDTLSTELELVNHFANFKRTIEEK
Ratio (Deletedscore / WTscore) (bait): 0.7244

B2: YDL160C_1 (protein, UniProt P39517 1-506, looked up)
ATP-dependent RNA helicase …: MGSINNNFNTNNNSNTDLDRDWKTALNIPKKDTRPQTDDVLNTKGNTFEDFYLKRELLMGIFEAGFEKPSPIQEEAIPVAITGRDILARAKNGTGKTAAFVIPTLEKVKPKLNKIQALIMVPTRELALQTSQVVRTLGKHCGISCMVTTGGTNLRDDILRLNETVHILVGTPGRVLDLASRKVADLSDCSLFIMDEADKMLSRDFKTIIEQILSFLPPTHQSLLFSATFPLTVKEFMVKHLHKPYEINLMEELTLKGITQYYAFVEERQKLHCLNTLFSKLQINQAIIFCNSTNRVELLAKKITDLGYSCYYSHARMKQQERNKVFHEFRQGKVRTLVCSDLLTRGIDIQAVNVVINFDFPKTAETYLHRIGRSGRFGHLGLAINLINWNDRFNLYKIEQELGTEIAAIPATIDKSLYVAENDETVPVPFPIEQQSYHQQAIPQQQLPSQQQFAIPPQQHHPQFMVPPSHQQQQAYPPPQMPSQQGYPPQQEHFMAMPPGQSQPQY
Ratio (Deletedscore / WTscore) (bait RVS167): 0.8286

B3: YDR329C_2 (protein, UniProt P28795 1-441, looked up)
Peroxisomal biogenesis factor …: MAPNQRSRSLLQRHRGKVLISLTGIAALFTTGSVVVFFVKRWLYKQQLRITEQHFIKEQIKRRFEQTQEDSLYTIYELLPVWRMVLNENDLNLDSIVTQLKDQKNQLTRAKSSESRESSPLKSKAELWNELELKSLIKLVTVTYTVSSLILLTRLQLNILTRNEYLDSAIKLTMQQENCNKLQNRFYNWVTSWWSDPEDKADDAMVMAAKKSKKEGQEVYINEQAFLSLSWWILNKGWLSYNEIITNQIEIEFDGIHPRDTLTLEEFSSRLTNIFRNTNSQIFQQNNNNLTSILLPKDSSGQEFLLSQTLDADALTSFHSNTLVFNQLVNELTQCIESTATSIVLESLINESFHFIMNKVGIKTIAKKKPGQEDQQQYQMAVFAMSMKDCCQEMLQTTAGSSHSGSVNEYLATLDSVQPLDDLSASVYSNFGVSSSFSFKP
Ratio (Deletedscore / WTscore) (bait BEM1-1): 1.085

B4: YGL060W_1 (protein, UniProt P53169 1-641, looked up)
YAP1-binding protein 2: MYNEQVNSGKSIKEKERYLDALLKILKDNPVTLKEIGWDLPKGLLQFFSRKNINVNIHLVFSPLVSSVMECFNELAINGNPKECLLTACELVSTLHIVLTETGDSDEENEDLNDSNRNDASNITDELSVITPEIGHYMAKNTVEFIPNLKIYVLFEFMSLLLKRVDTLYPSKFLAMVTSAIIKYVTTNVQAMDDPHFILRIVYNFCTNYSPAQPSASLTDGISTNDLEKIHDDESALQKKLLANLSVFVISNCLKNHPGNIDKIYFKTLMHKKTDENEIDASVLQICHQYYEYVTSLDVHMKELLEKCLVESRSIYNSLLMNPAASTPEFKEEINQLVYEVSYAYQIKKLADEKNLELDQYGVVILSAIHYSKNGTHLLPQIDIQSAIYLYLRCTTASLFSEIYENKFLESSVRYWLWVSTTETSTEKIKCALQELPGHITTAFLQMLLMKTCNESNNDTKLTEITLLRRLLYLMPESTSFTFIFETLLHCPYITAKIAVLDILRDMMIRSPEAANRDETVGLIEQQNPGNTANSVPIMPTLPPRPYITINEDRMASIHSIALICFSAAKQKKRTQGDLLLVLTYMKFFVSLRNKWDLGLLTLINKEISESFQGEGEPELAFINISNNTLGEYIEEMNIRS
Ratio (Deletedscore / WTscore) (bait RVS167): 0.4505

B5: YGL153W_2 (protein, UniProt P53112 2-341, looked up)
Peroxisomal membrane protein …: SDVVSKDRKALFDSAVSFLKDESIKDAPLLKKIEFLKSKGLTEKEIEIAMKEPKKDGIVGDEVSKKIGSTENRASQDMYLYEAMPPTLPHRDWKDYFVMATATAGLLYGAYEVTRRYVIPNILPEAKSKLEGDKKEIDDQFSKIDTVLNAIEAEQAEFRKKESETLKELSDTIAELKQALVQTTRSREKIEDEFRIVKLEVVNMQNTIDKFVSDNDGMQELNNIQKEMESLKSLMNNRMESGNAQDNRLFSISPNGIPGIDTIPSASEILAKMGMQEESDKEKENGSDANKDDNAVPAWKKAREQTIDSNASIPEWQKNTAANEISVPDWQNGQVEDSIP
Ratio (Deletedscore / WTscore) (bait BEM1-1): 1.295

B6: YKR082W_1 (protein, UniProt P36161 2-1157, looked up)
Nucleoporin NUP133: SEKKVHLRLRKELSVPIAVVENESLAQLSYEEESQASLMDISMEQQQLRLHSHFDNSKVFTENNRYIVKTLQTDYSSGFSNDDELNGYIDMQIGYGLVNDHKKVYIWNIHSTQKDTPYITVPFRSDDNDEIAVAPRCILTFPATMDESPLALNPNDQDETGGLIIIKGSKAIYYEDINSINNLNFKLSEKFSHELELPINSSGGEKCDLMLNCEPAGIVLSTNMGRIFFITIRNSMGKPQLKLGKLLNKPFKLGIWSKIFNTNSSVVSLRNGPILGKGTRLVYITTNKGIFQTWQLSATNSHPTKLIDVNIYEAILESLQDLYPFAHGTLKIWDSHPLQDESSQLFLSSIYDSSCNETYYILSTIIFDSSSNSFTIFSTYRLNTFMESITDTKFKPKIFIPQMENANDTNEVTSILVMFPNAVVITQVNSKLDSSYSMRRKWEDIVSLRNDIDIIGSGYDSKSLYVLTKQMGVLQFFVKENEETNSKPEVGFVKSHVDQAVYFSKINANPIDFNLPPEISLDQESIEHDLKLTSEEIFHSNGKYIPPMLNTLGQHLSVRKEFFQNFLTFVAKNFNYKISPELKLDLIEKFEILNCCIKFNSIIRQSDVLNDIWEKTLSNYNLTQNEHLTTKTVVINSPDVFPVIFKQFLNHVVFVLFPSQNQNFKLNVTNLINLCFYDGILEEGEKTIRYELLELDPMEVDTSKLPWFINFDYLNCINQCFFDFTFACEEEGSLDSYKEGLLKIVKILYYQFNQFKIWINTQPVKSVNANDNFININNLYDDNHLDWNHVLCKVNLKEQCIQIAEFYKDLSGLVQTLQTLDQNDSTTVSLYETFFNEFPKEFSFTLFEYLIKHKKLNDLIFRFPQQHDVLIQFFQESAPKYGHVAWIQQILDGSYADAMNTLKNITVDDSKKGESLSECELHLNVAKLSSLLVEKDNLDINTLRKIQYNLDTIDAEKNISNKLKKGEVQICKRFKNGSIREVFNILVEELKSTTVVNLSDLVELYSMLDDEESLFIPLRLLSVDGNLLNFEVKKFLNALVWRRIVLLNASNEGDKLLQHIVKRVFDEELPKNNDFPLPSVDLLCDKSLLTPEYISETYGRFPIDQNAIREEIYEEISQVETLNSDNSLEIKLHSTIGSVAKEKNYTINYETNTVEY
Ratio (Deletedscore / WTscore) (bait RVS167): 0.6329

B7: YDR379W_2 (protein, UniProt Q06407 1-1009, looked up)
Rho-type GTPase-activating …: MSADPINDQSSLCVRCNKSIASSQVYELESKKWHDQCFTCYKCDKKLNADSDFLVLDIGTLICYDCSDKCTNCGDKIDDTAIILPSSNEAYCSNCFRCCRCSNRIKNLKYAKTKRGLCCMDCHEKLLRKKQLLLENQTKNSSKEDFPIKLPERSVKRPLSPTRINGKSDVSTNNTAISKNLVSSNEDQQLTPQVLVSQERDESSLNDNNDNDNSKDREETSSHARTVSIDDILNSTLEHDSNSIEEQSLVDNEDYINKMGEDVTYRLLKPQRANRDSIVVKDPRIPNSNSNANRFFSIYDKEETDKDDTDNKENEIIVNTPRNSTDKITSPLNSPMAVQMNEEVEPPHGLALTLSEATKENNKSSQGIQTSTSKSMNHVSPITRTDTVEMKTSTSSSTLRLSDNGSFSRPQTADNLLPHKKVAPSPNKKLSRSFSLKSKNFVHNLKSKTSEMLDPKHPHHSTSIQESDTHSGWGVSSTHTNIRKSKAKKNPVSRGQSDSTIYNTLPQHGNFTVPEFNHKKAQSSLGSISKKQNSNDTATNRRINGSFTSSSSGHHIAMFRTPPLESGPLFKRPSLSSESAHHRSSSLQTSRSTNALLEDDSTKVDATDESATSLEKDFYFTELTLRKLKLDVRELEGTKKKLLQDVENLRLAKERLLNDVDNLTREKDKQSASSRESLEQKENIATSITVKSPSSNSDRKGSISNASPKPRFWKIFSSAKDHQVGDLESQQRSPNSSSGGTTNIAQKEISSPKLIRVHDELPSPGKVPLSPSPKRLDYTPDGSHLYGSSLQARCAYEKSTVPIIIRCCIDRIEKDDIGLNMEGLYRKSGSQTLVEEIENEFAQNNSLHSDTLSPKLNALLNQDIHAVASVLKRYLRKLPDPVLSFSIYDALIDLVRNNQLIERLPLNNDKFLDSPQKVTIYEMVLKSLLEIFKILPVEHQEVLKVLAAHIGKVRRCSERNLMNLHNLSLVFAPSLIHDFDGEKDIVDMKERNYIVEFILGNYRDIFKQA
Ratio (Deletedscore / WTscore) (bait BOI1): 0.9152
